{
  "source": "the RNAGym collection of RNA variant scans (doi:10.1093/molbev/msab373)",
  "parents": {"B1": {"name": "Azoarcus group I ribozyme (parent)", "chain": "GUGCCUUGCGCCGGGAAACCACGCAAGGGAUGGUGUCAAAUUCGGCGAAACCUAAGCGCCCGCCCGGGCGUAUGGCAACGCCGAGCCAAGCUUCGGCGCCUGCGCCGAUGAAGGUGUAGAGACUAGACGGCACCCACCUAAGGCAAACGCUAUGGUGAAGGCAUAGUCCAGGGAGUGGCGAAAGUCACACAAACCGG"}},
  "data": [
    {"variants_of": "B1", "assay": "reverse-splicing fitness (ratio to wild type); higher = more active; in vitro selection; Mg2+ level not given", "method_in_brief": "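An in vitro group I ribozyme library with randomized positions was T7-transcribed and gel-purified. In triplicate, 10 pmol RNA in EPPS pH 7.5 was reacted with 50 pmoles of a 30-nt RNA substrate for 1 h at 37 °C across several added MgCl2 levels (1–48 mM), then stopped with EDTA. Products were reverse transcribed from a substrate-complementary primer, PCR-amplified and sequenced (HiSeq 4000). Fitness is a variant's read proportion after selection over that before, normalised to wild type.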", "values": [
      {"variant": "C82A A111C A120G A145U C150A C169U U176A", "reverse-splicing fitness": 0.017},
      {"variant": "C82A A111C A120G A145U C150A C169U U176C", "reverse-splicing fitness": 0.0127},
      {"variant": "C82A A111C A120G A145U C150A C169U U176G", "reverse-splicing fitness": 0.00563},
      {"variant": "C82A A111C A120G A145C C150G U176C", "reverse-splicing fitness": 0.0141},
      {"variant": "C82A A111C A120G A145C C150G U176G", "reverse-splicing fitness": 0.00311},
      {"variant": "C82A A111C A120G A145C C150G U176A", "reverse-splicing fitness": 0.00683},
      {"variant": "C82A A111C A120G A145U C150U", "reverse-splicing fitness": 0.0124},
      {"variant": "C82A A111C A120G A145U C150G", "reverse-splicing fitness": 0.00701},
      {"variant": "C82A A111C A120G A145U C150A", "reverse-splicing fitness": 0.00771},
      {"variant": "C82A A111C A120G A145C C150U C169G U176A", "reverse-splicing fitness": 0.0217},
      {"variant": "C82A A111C A120G A145C C150U C169G U176G", "reverse-splicing fitness": 0.00558},
      {"variant": "C82A A111C A120G A145C C150U C169G U176C", "reverse-splicing fitness": 0.0133},
      {"variant": "C82A A111C A120C C150G C169U U176G", "reverse-splicing fitness": 0.00771},
      {"variant": "C82A A111C A120C C150G C169U U176A", "reverse-splicing fitness": 0.00611},
      {"variant": "C82A A111C A120C C150G C169U U176C", "reverse-splicing fitness": 0.0102},
      {"variant": "C82A A111C A120C A145G C169U U176C", "reverse-splicing fitness": 0.0138},
      {"variant": "C82A A111C A120C A145G C169U U176G", "reverse-splicing fitness": 0.00652},
      {"variant": "C82A A111C A120C A145G C169U U176A", "reverse-splicing fitness": 0.0165},
      {"variant": "C82A A111C A120C A145U C150G U176A", "reverse-splicing fitness": 0.00604},
      {"variant": "C82A A111C A120C A145U C150G U176C", "reverse-splicing fitness": 0.00803},
      {"variant": "C82A A111C A120C A145U C150G U176G", "reverse-splicing fitness": 0.00392},
      {"variant": "C82A A111C A120C A145G C169G", "reverse-splicing fitness": 0.00846},
      {"variant": "C82A A111C A120C A145G C169U", "reverse-splicing fitness": 0.0141},
      {"variant": "C82A A111C A120C A145G C169A", "reverse-splicing fitness": 0.00886},
      {"variant": "C82A A111C A120C A145G C150U C169U U176A", "reverse-splicing fitness": 0.0121},
      {"variant": "C82A A111C A120C A145G C150U C169U U176C", "reverse-splicing fitness": 0.0128},
      {"variant": "C82A A111C A120C A145G C150U C169U U176G", "reverse-splicing fitness": 0.00717},
      {"variant": "C82A A111C A120C C150A C169G", "reverse-splicing fitness": 0.00949},
      {"variant": "C82A A111C A120C C150A C169U", "reverse-splicing fitness": 0.0133},
      {"variant": "C82A A111C A120C C150A C169A", "reverse-splicing fitness": 0.0111},
      {"variant": "C82A A111C A120C C150A C169A U176A", "reverse-splicing fitness": 0.0196},
      {"variant": "C82A A111C A120C C150A C169A U176G", "reverse-splicing fitness": 0.00827},
      {"variant": "C82A A111C A120C C150A C169A U176C", "reverse-splicing fitness": 0.0181},
      {"variant": "C82A A111C A120G A145G C150U C169G U176A", "reverse-splicing fitness": 0.0123},
      {"variant": "C82A A111C A120G A145G C150U C169G U176C", "reverse-splicing fitness": 0.0182},
      {"variant": "C82A A111C A120G A145G C150U C169G U176G", "reverse-splicing fitness": 0.00582},
      {"variant": "C82A A111C A120G A145C U176G", "reverse-splicing fitness": 0.00486},
      {"variant": "C82A A111C A120G A145C U176A", "reverse-splicing fitness": 0.0123},
      {"variant": "C82A A111C A120G A145C U176C", "reverse-splicing fitness": 0.0134},
      {"variant": "C82A A111C A120C A145U C150U C169G", "reverse-splicing fitness": 0.00764},
      {"variant": "C82A A111C A120C A145U C150U C169A", "reverse-splicing fitness": 0.00985},
      {"variant": "C82A A111C A120C A145U C150U C169U", "reverse-splicing fitness": 0.0124},
      {"variant": "C82A A111C A120C A145U", "reverse-splicing fitness": 0.0241},
      {"variant": "C82A A111C A120C C150U C169A U176A", "reverse-splicing fitness": 0.0146},
      {"variant": "C82A A111C A120C C150U C169A U176G", "reverse-splicing fitness": 0.00849},
      {"variant": "C82A A111C A120C C150U C169A U176C", "reverse-splicing fitness": 0.0126},
      {"variant": "C82A A111C A120G A145C C169G U176A", "reverse-splicing fitness": 0.0239},
      {"variant": "C82A A111C A120G A145C C169G U176C", "reverse-splicing fitness": 0.0156},
      {"variant": "C82A A111C A120G A145C C169G U176G", "reverse-splicing fitness": 0.00472},
      {"variant": "C82A A111C A120C C150G U176G", "reverse-splicing fitness": 0.00353},
      {"variant": "C82A A111C A120C C150G U176C", "reverse-splicing fitness": 0.00863},
      {"variant": "C82A A111C A120C C150G U176A", "reverse-splicing fitness": 0.00563},
      {"variant": "C82A A111C A120G A145G C150G C169U U176G", "reverse-splicing fitness": 0.00784},
      {"variant": "C82A A111C A120G A145G C150G C169U U176A", "reverse-splicing fitness": 0.0114},
      {"variant": "C82A A111C A120G A145G C150G C169U U176C", "reverse-splicing fitness": 0.0123},
      {"variant": "C82A A111C A120G A145G C150U C169U U176A", "reverse-splicing fitness": 0.0155},
      {"variant": "C82A A111C A120G A145G C150U C169U U176G", "reverse-splicing fitness": 0.00525},
      {"variant": "C82A A111C A120G A145G C150U C169U U176C", "reverse-splicing fitness": 0.0131},
      {"variant": "C82A A111C A120C A145U C150A C169U U176C", "reverse-splicing fitness": 0.0143},
      {"variant": "C82A A111C A120C A145U C150A C169U U176G", "reverse-splicing fitness": 0.00918},
      {"variant": "C82A A111C A120C A145U C150A C169U U176A", "reverse-splicing fitness": 0.014},
      {"variant": "C82A A111C A120G A145G C150A U176C", "reverse-splicing fitness": 0.0185},
      {"variant": "C82A A111C A120G A145G C150A U176A", "reverse-splicing fitness": 0.00969},
      {"variant": "C82A A111C A120G A145G C150A U176G", "reverse-splicing fitness": 0.00772},
      {"variant": "C82A A111C A120C A145U C150G C169U U176A", "reverse-splicing fitness": 0.00763},
      {"variant": "C82A A111C A120C A145U C150G C169U U176G", "reverse-splicing fitness": 0.00684},
      {"variant": "C82A A111C A120C A145U C150G C169U U176C", "reverse-splicing fitness": 0.0101},
      {"variant": "C82A A111C A120C A145G U176C", "reverse-splicing fitness": 0.0274},
      {"variant": "C82A A111C A120C A145G U176G", "reverse-splicing fitness": 0.00691},
      {"variant": "C82A A111C A120C A145G U176A", "reverse-splicing fitness": 0.0152},
      {"variant": "C82A A111C A120C A145U C150G C169A U176G", "reverse-splicing fitness": 0.00744},
      {"variant": "C82A A111C A120C A145U C150G C169A U176A", "reverse-splicing fitness": 0.00956},
      {"variant": "C82A A111C A120C A145U C150G C169A U176C", "reverse-splicing fitness": 0.0125},
      {"variant": "C82A A111C A120G A145C C150A C169U U176C", "reverse-splicing fitness": 0.00893},
      {"variant": "C82A A111C A120G A145C C150A C169U U176G", "reverse-splicing fitness": 0.00495},
      {"variant": "C82A A111C A120G A145C C150A C169U U176A", "reverse-splicing fitness": 0.0142},
      {"variant": "C82A A111C A120G A145G C150U U176A", "reverse-splicing fitness": 0.00883},
      {"variant": "C82A A111C A120G A145G C150U U176C", "reverse-splicing fitness": 0.0186},
      {"variant": "C82A A111C A120G A145G C150U U176G", "reverse-splicing fitness": 0.00706},
      {"variant": "C82A A111C A120C C150U C169U", "reverse-splicing fitness": 0.0115},
      {"variant": "C82A A111C A120C C150U C169A", "reverse-splicing fitness": 0.0121},
      {"variant": "C82A A111C A120C C150U C169G", "reverse-splicing fitness": 0.00849},
      {"variant": "C82A A111C A120G A145U", "reverse-splicing fitness": 0.0152}
    ]}
  ]
}
